Test results reported in paper PMC6120343 (Nature, 2018).

Columns and labels:
[1] = target: the molecule itself; experiment: cryo-EM 2D class averages
SEC = target: the molecule itself; experiment: SEC
[2] = target: the molecule itself; experiment: assembly and coassembly seen by negative stain electron microscopy
[3] = target: DRP1 E116R mutant, full length (human, UniProt O00429-3 1-710, E116R); experiment: as above

B1: DRP1 G362D, disease-associated mutant, full length (enzyme)
chain: MEALIPVINKLQDVFNTVGADIIQLPQIVVVGTQSSGKSSVLESLVGRDLLPRGTGIVTRRPLILQLVHVSQEDKRKTTGEENGVEAEEWGKFLHTKNKLYTDFDEIRQEIENETERISGNNKGVSPEPIHLKIFSPNVVNLTLVDLPGMTKVPVGDQPKDIELQIRELILRFISNPNSIILAVTAANTDMATSEALKISREVDPDGRRTLAVITKLDLMDAGTDAMDVLMGRVIPVKLGIIGVVNRSQLDINNKKSVTDSIRDEYAFLQKKYPSLANRNGTKYLARTLNRLLMHHIRDCLPELKTRINVLAAQYQSLLNSYGEPVDDKSATLLQLITKFATEYCNTIEGTAKYIETSELCDGARICYIFHETFGRTLESVDPLGGLNTIDILTAIRNATGPRPALFVPEVSFELLVKRQIKRLEEPSLRCVELVHEEMQRIIQHCSNYSTQELLRFPKLHDAIVEVVTCLLRKRLPVTNEMVHNLVAIELAYINTKHPDFADACGLMNNNIEEQRRNRLARELPSAVSRDKLIQDSRRETKNVASGGGGVGDGVQEPTTGNWRGMLKTSKAEELLAEEKSKPIPIMPASPQKGHAVNLLDVPVPVARKLSAREQRDCEVIERLIKSYFLIVRKNIQDSVPKAVMHFLVNHVKDTLQSELVGQLYKSSLLDDLLTESEDMAQRRKEAADMLKALQGASQIIAEIRETHLW
For B1, the “stoichiometry N” value [1] was 24 chains (12 dimers) and the “stoichiometry N” value (SEC) was 2.

B2: DRP1 S611D phosphomimetic mutant, full length (enzyme)
chain: MEALIPVINKLQDVFNTVGADIIQLPQIVVVGTQSSGKSSVLESLVGRDLLPRGTGIVTRRPLILQLVHVSQEDKRKTTGEENGVEAEEWGKFLHTKNKLYTDFDEIRQEIENETERISGNNKGVSPEPIHLKIFSPNVVNLTLVDLPGMTKVPVGDQPKDIELQIRELILRFISNPNSIILAVTAANTDMATSEALKISREVDPDGRRTLAVITKLDLMDAGTDAMDVLMGRVIPVKLGIIGVVNRSQLDINNKKSVTDSIRDEYAFLQKKYPSLANRNGTKYLARTLNRLLMHHIRDCLPELKTRINVLAAQYQSLLNSYGEPVDDKSATLLQLITKFATEYCNTIEGTAKYIETSELCGGARICYIFHETFGRTLESVDPLGGLNTIDILTAIRNATGPRPALFVPEVSFELLVKRQIKRLEEPSLRCVELVHEEMQRIIQHCSNYSTQELLRFPKLHDAIVEVVTCLLRKRLPVTNEMVHNLVAIELAYINTKHPDFADACGLMNNNIEEQRRNRLARELPSAVSRDKLIQDSRRETKNVASGGGGVGDGVQEPTTGNWRGMLKTSKAEELLAEEKSKPIPIMPASPQKGHAVNLLDVPVPVARKLDAREQRDCEVIERLIKSYFLIVRKNIQDSVPKAVMHFLVNHVKDTLQSELVGQLYKSSLLDDLLTESEDMAQRRKEAADMLKALQGASQIIAEIRETHLW
B2: binds [2].

B3: MID49_(126-454), soluble truncation of Mitochondrial Dynamics 49 without the N-terminal transmembrane anchor (domain or fragment)
chain: TLQERLLAFERDRVTIPAAQVALAKQLAGDIALELQAYFRSKFPELPFGAFVPGGPLYDGLQAGAADHVRLLVPLVLEPGLWSLVPGVDTVARDPRCWAVRRTQLEFCPRGSSPWDRFLVGGYLSSRVLLELLRKALAASVNWPAIGSLLGCLIRPSMASEELLLEVQHERLELTVAVLVAVPGVDADDRLLLAWPLEGLAGNLWLQDLYPVEAARLRALDDHDAGTRRRLLLLLCAVCRGCSALGQLGRGHLTQVVLRLGEDNVDWTEEALGERFLQALELLIGSLEQASLPCHFNPSVNLFSSLREEEIDDIGYALYSGLQEPEGLL
B3: binds [3].
